Laboratory results from patent US20040087777A1 (NEURALAB, published 2004).

Columns and labels:
[1] = target: T1, beta amyloid peptide (Aβ) (human, UniProt P05067 672-713, limits assumed); assay: ELISA competitive binding assay with biotinylated 3D6
T1 construct: also called A-beta; β-amyloid peptide

[2] = target: T1, beta amyloid peptide (Aβ); assay: BIAcore
[3] = target: T1, beta amyloid peptide (Aβ); assay: average of ELISA and BIAcore results

B1: humanized 3D6 version 1 (antibody, V domains shown)
VH: EVQLLESGGGLVQPGGSLRLSCAASGFTFSNYGMSWVRQAPGKGLEWVASIRSGGGRTYYSDNVKGRFTISRDNAKNSLYLQMNSLRAEDTALYYCVRYDHYSGSSDYWGQGTLVTVSS
VL: YVVMTQSPLSLPVTPGEPASISCKSSQSLLDSDGKTYLNWLLQKPGQSPQRLIYLVSKLDSGVPDRFSGSGSGTDFTLKISRVEAEDVGVYYCWQGTHFPRTFGQGTKVEIK
notes: Human constant regions (light chain vector pCMV-cK); also called humanized 3D6v1; h3D6v1
With B1 the “fold less binding affinity than 3D6” value [1] was ~6 fold, the Kd [2] was 2.06 nM and the koff [2] was 0.000382 s⁻¹. The kon [2] was 185000 M⁻¹ s⁻¹ and the “fold loss of binding affinity against 3D6” value [3] was ~3 fold.
